According to the supplement of paper PMC9233669:
Fewer inactive variants are shown than the library holds.

Tests used:
biotinyl-Met-oxazolone = test: self-aminoacylation, catalytic enhancement (BMO) (fold over background); higher = more active; k-Seq, kA / k0A0; sequences stand for … in GGGAAUGGAUCCACAUCUACGAAUUC…UUCACUGCAGACUUGACGAAGCUG
Procedure, shortened: (§1)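 Mutagenized RNA pools with a 21-nt variable region (0.43 μM) reacted with each biotinyl-aminoacyl-oxazolone at 2–1250 μM. Reactions ran in 50 μL HEPES/NaCl/KCl/MgCl2/CaCl2 buffer with 5% acetonitrile, pH 6.9–7.0, for 90 minutes at room temperature. Streptavidin-captured RNA was quantified by triplicate qPCR and Illumina sequencing, and per-sequence fraction reacted was fit to a pseudo-first-order model with 1000 bootstraps. Catalytic enhancement is median kA divided by the uncatalyzed rate, the low-activity peak of a bimodal Gaussian fit.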

biotinyl-Val-oxazolone = test: self-aminoacylation, catalytic enhancement (BVO) (fold over background); higher = more active; k-Seq, kA / k0A0; sequences stand for … in GGGAAUGGAUCCACAUCUACGAAUUC…UUCACUGCAGACUUGACGAAGCUG
Procedure, shortened: as §1

biotinyl-Phe-oxazolone = test: self-aminoacylation, catalytic enhancement (BFO) (fold over background); higher = more active; k-Seq, kA / k0A0; sequences stand for … in GGGAAUGGAUCCACAUCUACGAAUUC…UUCACUGCAGACUUGACGAAGCUG
Procedure, shortened: as §1

biotinyl-Leu-oxazolone = test: self-aminoacylation, catalytic enhancement (BLO) (fold over background); higher = more active; k-Seq, kA / k0A0; sequences stand for … in GGGAAUGGAUCCACAUCUACGAAUUC…UUCACUGCAGACUUGACGAAGCUG
Procedure, shortened: as §1

biotinyl-Trp-oxazolone = test: self-aminoacylation, catalytic enhancement (BWO) (fold over background); higher = more active; k-Seq, kA / k0A0; sequences stand for … in GGGAAUGGAUCCACAUCUACGAAUUC…UUCACUGCAGACUUGACGAAGCUG
Procedure, shortened: as §1

biotinyl-Ile-oxazolone = test: self-aminoacylation, catalytic enhancement (BIO) (fold over background); higher = more active; k-Seq, kA / k0A0; sequences stand for … in GGGAAUGGAUCCACAUCUACGAAUUC…UUCACUGCAGACUUGACGAAGCUG
Procedure, shortened: as §1

Sequence | self-aminoacylation (biotinyl-Met-oxazolone) | self-aminoacylation (biotinyl-Val-oxazolone) | self-aminoacylation (biotinyl-Phe-oxazolone) | self-aminoacylation (biotinyl-Leu-oxazolone) | self-aminoacylation (biotinyl-Trp-oxazolone) | self-aminoacylation (biotinyl-Ile-oxazolone)
AUUCACCUAGCUCAUCGGGCG [Fam2.2 aminoacylation ribozyme variant] | 2.3 | 2.57 | 11.7 | 2.33 | 1.8 | 2.26
AUUCACCUAGCUCAUGGGGUG [Fam2.2 aminoacylation ribozyme variant] | 5.15 | 2.8 | 32.8 | 5.64 | 4.56 | 2.97
AUUCACCUAGGACAUAGGGUG [Fam2.2 aminoacylation ribozyme variant] | 3.54 | 2.01 | 18.6 | 4.7 | 3.23 | 2.06
AUUCACCUAGGACAUCGAGUG [Fam2.2 aminoacylation ribozyme variant] | 1.52 | 1.12 | 2.04 | 1.81 | 1.89 | 1.02
AUUCACCUAGGACAUCGGGAG [Fam2.2 aminoacylation ribozyme variant] | 1.08 | 0.991 | 0.29 | 1.03 | 0.92 | 1.02
AUUCACCUAGGACAUCGGGUC [Fam2.2 aminoacylation ribozyme variant] | 0.87 | 1.25 | 0.549 | 1.42 | 0.858 | 1.22
AUUCACCUAGGACUUCGGGUG [Fam2.2 aminoacylation ribozyme variant] | 2.75 | 2.43 | 19.1 | 3.6 | 3.48 | 2.5
AUUCACCUAGGAUAUCGGGUG [Fam2.2 aminoacylation ribozyme variant] | 6.65 | 3.64 | 44.1 | 7.35 | 5.47 | 3.31
AUUCACCUAGGCAAUCGGGUG [Fam2.2 aminoacylation ribozyme variant] | 3.95 | 2.98 | 35.4 | 4.75 | 3.92 | 2.52
AUUCACCUAGGCCAUCGGGUU [Fam2.2 aminoacylation ribozyme variant] | 1.52 | 1.31 | 5.49 | 1.03 | 0.76 | 1.34
AUUCACCUAGGCCGUCGGGUG [Fam2.2 aminoacylation ribozyme variant] | 1.94 | 2.3 | 17.1 | 2.74 | 2.11 | 1.87
AUUCACCUAGGGCAACGGGUG [Fam2.2 aminoacylation ribozyme variant] | 2.81 | 2.5 | 22.8 | 4.08 | 2.92 | 2.59
AUUCACCUAGGGCAUCAGGUG [Fam2.2 aminoacylation ribozyme variant] | 1.6 | 1.46 | 1.46 | 1.7 | 1.55 | 1.35
AUUCACCUAGGGCAUCGCGUG [Fam2.2 aminoacylation ribozyme variant] | 3.5 | 3.89 | 26.7 | 2.92 | 2.95 | 3.12
AUUCACCUAGGGCAUCGGGUG [Fam2.2 aminoacylation ribozyme variant] | 3.55 | 3 | 20.3 | 4.05 | 3.4 | 2.78
AUUCACCUAGGGCAUCUGGUG [Fam2.2 aminoacylation ribozyme variant] | 2.63 | 2.33 | 13 | 3.23 | 2.64 | 2.11
AUUCACCUAGGGCAUUGGGUG [Fam2.2 aminoacylation ribozyme variant] | 6.54 | 3.49 | 42.8 | 8.05 | 6.12 | 3.74
AUUCACCUAGGUAAGCGGGUG [Fam2.2 aminoacylation ribozyme variant] | 2.73 | 1.48 | 14.3 | 2.75 | 2.31 | 1.9
AUUCACCUAGGUAAUCAGGUG [Fam2.2 aminoacylation ribozyme variant] | 1.25 | 0.989 | 1.21 | 1.31 | 0.933 | 0.967
AUUCACCUAGGUAAUCCGGUG [Fam2.2 aminoacylation ribozyme variant] | 3.77 | 2.39 | 30.4 | 4.57 | 4.8 | 2.33
AUUCACCUAGGUAAUCGGGUC [Fam2.2 aminoacylation ribozyme variant] | 0.606 | 0.689 | 0.508 | 0.754 | 0.691 | 0.866
AUUCACCUAGGUACUCGGGUG [Fam2.2 aminoacylation ribozyme variant] | 2.47 | 2.11 | 29.8 | 3.3 | 2.78 | 2.15
AUUCACCUAGGUCAACAGGUG [Fam2.2 aminoacylation ribozyme variant] | 2.2 | 1.56 | 5.63 | 2.8 | 1.87 | 1.64
AUUCACCUAGGUCACCCGGUG [Fam2.2 aminoacylation ribozyme variant] | 7.32 | 7.55 | 37.3 | 9.93 | 5.82 | 9.3
AUUCACCUAGGUCACCGAGUG [Fam2.2 aminoacylation ribozyme variant] | 3.57 | 1.99 | 14.4 | 4.03 | 3.47 | 2.11
AUUCACCUAGGUCACCGGGCG [Fam2.2 aminoacylation ribozyme variant] | 3.66 | 4.43 | 11.3 | 4.7 | 4.68 | 3.96

Sequence | self-aminoacylation (biotinyl-Met-oxazolone) | self-aminoacylation (biotinyl-Val-oxazolone) | self-aminoacylation (biotinyl-Phe-oxazolone) | self-aminoacylation (biotinyl-Leu-oxazolone) | self-aminoacylation (biotinyl-Trp-oxazolone) | self-aminoacylation (biotinyl-Ile-oxazolone)
AUUCACCUAGGUCAGCGGGUG [Fam2.2 aminoacylation ribozyme variant] | 4.39 | 3.2 | 29.1 | 5.95 | 4.21 | 3.3
AUUCACCUAGGUCAUAAGGUG [Fam2.2 aminoacylation ribozyme variant] | 3.33 | 1.69 | 6.42 | 3.48 | 2.59 | 1.98
AUUCACCUAGGUCAUAGGGUA [Fam2.2 aminoacylation ribozyme variant] | 0.923 | 1.16 | 0.412 | 0.856 | 1.67 | 1.21
AUUCACCUAGGUCAUCAGAUG [Fam2.2 aminoacylation ribozyme variant] | 0.656 | 0.872 | 0.715 | 0.928 | 0.522 | 0.857
AUUCACCUAGGUCAUCCGGUA [Fam2.2 aminoacylation ribozyme variant] | 2.17 | 2.3 | 6.52 | 2.3 | 1.87 | 2.36
AUUCACCUAGGUCAUCGCGUU [Fam2.2 aminoacylation ribozyme variant] | 2.62 | 2.39 | 12.7 | 3 | 3.66 | 2.48
AUUCACCUAGGUCAUCGCUUG [Fam2.2 aminoacylation ribozyme variant] | 1.32 | 1.12 | 4.33 | 1.26 | 0.795 | 1.18
AUUCACCUAGGUCAUCGGGCC [Fam2.2 aminoacylation ribozyme variant] | 3.51 | 2.97 | 14.7 | 4.1 | 4.4 | 2.73
AUUCACCUAGGUCAUCGGGGC [Fam2.2 aminoacylation ribozyme variant] | 7.18 | 4.81 | 20.7 | 11.5 | 5.91 | 4.85
AUUCACCUAGGUCAUCGGUAG [Fam2.2 aminoacylation ribozyme variant] | 0.838 | 0.836 | 0.533 | 0.606 | 0.372 | 0.626
AUUCACCUAGGUCAUCGGUUG [Fam2.2 aminoacylation ribozyme variant] | 1.01 | 1.03 | 1.02 | 1.11 | 0.932 | 1
AUUCACCUAGGUCAUCUAGUG [Fam2.2 aminoacylation ribozyme variant] | 4.77 | 2.78 | 18.7 | 5.99 | 4.12 | 2.92
AUUCACCUAGGUCAUGGAGUG [Fam2.2 aminoacylation ribozyme variant] | 3.29 | 2.49 | 7.91 | 4.09 | 3.68 | 2.31
AUUCACCUAGGUCAUGGGAUG [Fam2.2 aminoacylation ribozyme variant] | 0.66 | 0.657 | 0.397 | 0.611 | 0.315 | 0.596
AUUCACCUAGGUCAUGGUGUG [Fam2.2 aminoacylation ribozyme variant] | 0.846 | 0.932 | 0.397 | 0.994 | 0.519 | 0.936
AUUCACCUAGGUCAUGUGGUG [Fam2.2 aminoacylation ribozyme variant] | 2.95 | 2.1 | 20 | 3.91 | 2.98 | 2.18
AUUCACCUAGGUCAUUGGGAG [Fam2.2 aminoacylation ribozyme variant] | 1.05 | 0.991 | 0.946 | 1.07 | 1.16 | 1.15
AUUCACCUAGGUCCACGGGUG [Fam2.2 aminoacylation ribozyme variant] | 7.25 | 4.27 | 48.5 | 9.94 | 6.34 | 3.85
AUUCACCUAGGUCCUCGGAUG [Fam2.2 aminoacylation ribozyme variant] | 0.966 | 0.89 | 0.427 | 1.07 | 0.587 | 0.964
AUUCACCUAGGUCCUCGGGGG [Fam2.2 aminoacylation ribozyme variant] | 2.98 | 2.85 | 9.54 | 2.98 | 2.42 | 2.8
AUUCACCUAGGUCCUCGGGUG [Fam2.2 aminoacylation ribozyme variant] | 4.59 | 3.13 | 30.2 | 5.91 | 4.22 | 3.08
AUUCACCUAGGUCCUCGGGUU [Fam2.2 aminoacylation ribozyme variant] | 2.22 | 2.06 | 8.53 | 2.45 | 2.48 | 1.8
AUUCACCUAGGUCCUUGGGUG [Fam2.2 aminoacylation ribozyme variant] | 4.11 | 2.51 | 31.7 | 5.09 | 3.42 | 2.7
AUUCACCUAGGUCGUCGGCUG [Fam2.2 aminoacylation ribozyme variant] | 2.16 | 1.97 | 4.94 | 2.55 | 1.63 | 1.62
AUUCACCUAGGUCUGCGGGUG [Fam2.2 aminoacylation ribozyme variant] | 4.69 | 2.58 | 12.8 | 4.85 | 3.44 | 3.08
